From patent publication US8765433B2, “Alcohol dehydrogenases (ADH) useful for fermentive production of lower alkyl alcohols” (Butamax Advanced Biofuels LLC, priority 2009, dated 2014)

Tests used:
[1] = Cofactor specificity in isobutyraldehyde reduction reactions; assay type: biochemical; conditions: for COFACTOR PREFERENCE: isobutyraldehyde reduction, NADH or NADPH as cofactor
Procedure: (§1) As a routine practice, the crude extracts and purified proteins were assayed for butanol oxidation activity, in order to ensure that the recombinant proteins were active throughout the purification process. […] Alcohol oxidation activities were carried out in 50 mM sodium phosphate buffer at pH 8.8 and aldehyde reduction reactions were assayed in 190 mM potassium phosphate buffer at pH 7.0. Depending on the nature of reaction being carried out, the enzyme and cofactor stocks were diluted in the reaction buffers at the respective pHs. Either buffer or cell extract prepared from the proprietary E. coli strain (with no ADH plasmid) was used as the negative control for assays with purified protein and cell-free extracts, respectively.
In initial experiments, there were insufficient levels of protein expression with EhADH1 and RpADH8. […] It is believed that one of skill in the art could further optimize expression and assay conditions for these candidates. Sufficient amounts of active protein could be purified with all other enzymes for which data are presented. […]

[2] = Isobutanol oxidation assay; assay type: biochemical; conditions: Table 8
Procedure: as §1
Kinetic constants of the ADH enzymes were calculated and compared to identify those candidate ADH enzymes with the most desirable properties for the conversion of isobutyraldehyde to isobutanol in the last step of the engineered pathway for isobutanol production. The assays for determining the kinetic constants were carried out using initial rates from the assays described above. […] The concentration of a given enzyme was such that it was conducive for the measurement of initial velocities over a 1-min time course. For each enzyme, Michaelis-Menten plots were generated with a broad range of substrate concentrations. Rough estimates of KM were obtained, based on which the assays were redesigned so as to use substrate concentrations in the range 0.5 to 10 times the KM value, to be able to obtain the appropriate kinetic constants. […] When calculating the KI for isobutanol, the same reactions were carried out in the presence of varying concentrations of isobutanol (generally 0-535 mM) in the reaction (see FIG. 7, for example). Reactions with isobutanol substrate were performed at 30° C. in 50 mM Sodium phosphate buffer, pH 8.8, containing 7.5 mM NAD. The Enzyme kinetics module (Version 1.3) of SigmaPlot 11 (Systat Software, Inc.) was used to fit data to Michaelis-Menten equations and calculate the kinetic constants. The kcat/KM is derived from the individual numbers of kcat and KM and not an experimentally determined value. The ratios of the KM, KI, and kcat/KM for each candidate enzyme as compared to the same parameter for SadB are given in Table 9.

Molecule | Other enzymatic properties and cofactor preference ([1]; Table 7) | COFACTOR PREFERENCE [1] | conversion of isobutanol to isobutyraldehyde [2] | Other enzymatic properties and cofactor preference ([1]; Table 8)
TADH: Thermus sp. ATN1 ADH, SEQ ID NO: 33 (protein, Thermus sp. ATN1) MRAVVFENKERVAVKEVNAPRLQHPLDALVRVHLAGICGSDLHLYHGKIPVLPGSVLGHEFVGQVEAVGEGIQDLQPGDWVVGPFHIACGTCPYCRRHQYNLCERGGVYGYGPMFGNLQGAQAEILRVPFSNVNLRKLPPNLSPERAIFAGDILSTAYGGLIQGQLRPGDSVAVIGAGPVGLMAIEVAQVLGASKILAIDRIPERLERAASLGAIPINAEQENPVRRVRSETNDEGPDLVLEAVGGAATLSLALEMVRPGGRVSAVGVDNAPSFPFPLASGLVKDLTFRIGLANVHLYIDAVLALLASGRLQPERIVSHYLPLEEAPRGYELFDRKEALKVLLVVRG | NADH specific | NADH | – | –
HLADH: Horse-liver ADH (A-6128) purchased from Sigma; control polypeptide, SEQ ID NO: 21 (protein, listed as Equus caballus) MSTAGKVIKCKAAVLWEEKKPFSIEEVEVAPPKAHEVRIKMVATGICRSDDHVVSGTLVTPLPVIAGHEAAGIVESIGEGVTTVRPGDKVIPLFTPQCGKCRVCKHPEGNFCLKNDLSMPRGTMQDGTSRFTCRGKPIHHFLGTSTFSQYTVVDEISVAKIDAASPLEKVCLIGCGFSTGYGSAVKVAKVTQGSTCAVFGLGGVGLSVIMGCKAAGAARIIGVDINKDKFAKAKEVGATECVNPQDYKKPIQEVLTEMSNGGVDFSFEVIGRLDTMVTALSCCQEAYGVSVIVGVPPDSQNLSMNPMLLLSGRTWKGAIFGGFKSKDSVPKLVADFMAKKFALDPLITHVLPFEKINEGFDLLRSGESIRTILTF | – | NADH | – | –
RnADH1: Rattus norvegicus ADH1, SEQ ID NO: 32 (protein, listed as Rattus norvegicus) MSTAGKVIKCKAAVLWEPHKPFTIEDIEVAPPKAHEVRIKMVATGVCRSDDHAVSGSLFTPLPAVLGHEGAGIVESIGEGVTCVKPGDKVIPLFSPQCGKCRICKHPESNLCCQTKNLTQPKGALLDGTSRFSCRGKPIHHFISTSTFSQYTVVDDIAVAKIDAAAPLDKVCLIGCGFSTGYGSAVQVAKVTPGSTCAVFGLGGVGLSVVIGCKTAGAAKIIAVDINKDKFAKAKELGATDCINPQDYTKPIQEVLQEMTDGGVDFSFEVIGRLDTMTSALLSCHSACGVSVIVGVPPSAQSLSVNPMSLLLGRTWKGAIFGGFKSKDAVPKLVADFMAKKFPLEPLITHVLPFEKINEAFDLLRAGKSIRTVLTF | NADH specific | NADH | – | –
CbADH: Clostridium beijerinckii ADH, SEQ ID NO: 29 (protein, listed as Clostridium beijerinckii) MKGFAMLGINKLGWIEKERPVAGSYDAIVRPLAVSPCTSDIHTVFEGALGDRKNMILGHEAVGEVVEVGSEVKDFKPGDRVIVPCTTPDWRSLEVQAGFQQHSNGMLAGWKFSNFKDGVFGEYFHVNDADMNLAILPKDMPLENAVMITDMMTTGFHGAELADIQMGSSVVVIGIGAVGLMGIAGAKLRGAGRIIGVGSRPICVEAAKFYGATDILNYKNGHIVDQVMKLTNGKGVDRVIMAGGGSETLSQAVSMVKPGGIISNINYHGSGDALLIPRVEWGCGMAHKTIKGGLCPGGRLRAEMLRDMVVYNRVDLSKLVTHVYHGFDHIEEALLLMKDKPKDLIKAVVIL | NADPH specific | NADPH | – | –
AbADH: Acinetobacter baumannii AYE ADH, SEQ ID NO: 36 (protein, Acinetobacter baumannii AYE) MENIMKAMVYYGDHDIRFEERKKPELIDPTDAIIKMTKTTICGTDLGIYKGKNPEIEQKEQEKNGSFNGRILGHEGIGIVEQIGSSVKNIKVGDKVIVSCVSRCGTCENCAKQLYSHCRNDGGWIMGYMIDGTQAEYVRTPFADTSLYVLPEGLNEDVAVLLSDALPTAHEIGVQNGDIKPGDTVAIVGAGPVGMSALLTAQFYSPSQIIMIDMDENRLAMAKELGATDTINSGTEDAIARVMELTNQRGVDCAIEAVGIEPTWDICQNIVKEGGHLANVGVHGKSVNFSLEKLWIKNLTITTGLVNANTTGMLLKSCCSGKLPMEKLATHHFKFNEIEKAYDVFINAAKEKAMKVIIDF | – | NADH | No measureable | NADH specific
GbADH: Geobacillus sp. WCH70 ADH, SEQ ID NO: 37 (protein, Geobacillus sp. WCH70) MKALTYLGPGKKEVMEKPKPKIEKETDAIVKITKTTICGTDLHILSGDVPTVEEGRILGHEGVGIIEEVGSGVKNFKKGDRVLISCITSCGKCENCKKGLYAHCEDGGWILGHLIDGTQAEYVRIPHADNSLYPIPEGVDEEALVMLSDILPTGFEIGVLNGKVQPGQTVAIIGAGPVGMAALLTAQFYSPAEIIMVDLDDNRLEVAKKFGATQVVNSADGKAVEKIMELTGGKGVDVAMEAVGIPVTFDICQEIVKPGGYIANIGVHGKSVEFHIEKLWIRNITLTTGLVNTTSTPMLLKTVQSKKLKPEQLITHRFAFADIMKAYEVFGNAAKEKALKVIISND | – | NADPH | No measureable | NADPH specific
PzADH: Phenylobacterium zucineum HLK1 ADH, SEQ ID NO: 34 (protein, Phenylobacterium zucineum HLK1) MKALVYGGPGQKSLEDRPKPELQAPGDAIVRIVKTTICGTDLHILKGDVATCAPGRILGHEGVGIVDSVGAAVTAFRPGDHVLISCISACGKCDYCRRGMYSHCTTGGWILGNEIDGTQAEYVRTPHADTSLYPVPAGADEEALVMLSDILPTGFECGVLNGKVAPGGTVAIVGAGPIGLAALLTAQFYSPAEIIMIDLDDNRLGIARQFGATQTINSGDGRAAETVKALTGGRGVDTAIEAVGVPATFELCQDLVGPGGVIANIGVHGRKVDLHLDRLWSQNIAITTRLVDTVSTPMLLKTVQSRKLDPSQLITHRFRLDEILAAYDTFARAADTQALKVIIAA | – | NADH | No measureable | NADH specific
ScADH7: Saccharomyces cerevisiae ADH7 alcohol dehydrogenase, SEQ ID NO: 23 (protein, listed as Saccharomyces cerevisiae) MLYPEKFQGIGISNAKDWKHPKLVSFDPKPFGDHDVDVEIEACGICGSDFHIAVGNWGPVPENQILGHEIIGRVVKVGSKCHTGVKIGDRVGVGAQALACFECERCKSDNEQYCTNDHVLTMWTPYKDGYISQGGFASHVRLHEHFAIQIPENIPSPLAAPLLCGGITVFSPLLRNGCGPGKRVGIVGIGGIGHMGILLAKAMGAEVYAFSRGHSKREDSMKLGADHYIAMLEDKGWTEQYSNALDLLVVCSSSLSKVNFDSIVKIMKIGGSIVSIAAPEVNEKLVLKPLGLMGVSISSSAIGSRKEIEQLLKLVSEKNVKIWVEKLPISEEGVSHAFTRMESGDVKYRFTLVDYDKKFHK | NADPH specific | NADPH | – | –
MsADH: Methylocella silvestris BL2 ADH, SEQ ID NO: 35 (protein, Methyloceclla silvestris BL2) MKALVYHGPGQKALEERPKPQIEASGDAIVKIVKTTICGTDLHILKGDVATCAPGRILGHEGVGIIDSVGAGVTAFQPGDRVLISCISSCGKCDYCRRGLYSHCTTGGWILGNEIDGTQAEYVRTPHADTSLYRIPAGADEEALVMLSDILPTGFECGVLNGKVEPGSTVAIVGAGPIGLAALLTAQFYAPGDIIMIDLDDNRLDVARRFGATHTINSGDGKAAEAVKALTGGIGVDTAIEAVGIPATFLLCEDIVAPGGVIANVGVHGVKVDLHLERLWAHNITITTRLVDTVTTPMLLKTVQSKKLDPLQLITHRFTLDHILDAYDTFSRAADTKALKVIVSA | – | NADH | No measureable | NADH specific
SadB: Achromobacter xylosoxidans Secondary Alcohol Dehydrogenase B; control polypeptide, SEQ ID NO: 26 (protein, Achromobacter xylosoxidans) MKALVYHGDHKISLEDKPKPTLQKPTDVVVRVLKTTICGTDLGIYKGKNPEVADGRILGHEGVGVIEEVGESVTQFKKGDKVLISCVTSCGSCDYCKKQLYSHCRDGGWILGYMIDGVQAEYVRIPHADNSLYKIPQTIDDEIAVLLSDILPTGHEIGVQYGNVQPGDAVAIVGAGPVGMSVLLTAQFYSPSTIIVIDMDENRLQLAKELGATHTINSGTENVVEAVHRIAAEGVDVAIEAVGIPATWDICQEIVKPGAHIANVGVHGVKVDFEIQKLWIKNLTITTGLVNTNTTPMLMKVASTDKLPLKKMITHRFELAEIEHAYQVFLNGAKEKAMKIILSNAGAA | – | NADH | – | –
